Test results: patent publication US20220033501A1 (SHANGHAI PHARMAEXPLORER, published 2022)
Substitutions are numbered along the chain they refer to.

How the values were obtained:
[1] = molecular target: T1, human TIM-3 on CHOK1 stable cell line (CHOK1-hTIM-3) (human, UniProt Q8TDQ0 22-301); experiment: FACS, CHOK1-hTIM-3 cells, 0.32 nM antibody
T1 sequence: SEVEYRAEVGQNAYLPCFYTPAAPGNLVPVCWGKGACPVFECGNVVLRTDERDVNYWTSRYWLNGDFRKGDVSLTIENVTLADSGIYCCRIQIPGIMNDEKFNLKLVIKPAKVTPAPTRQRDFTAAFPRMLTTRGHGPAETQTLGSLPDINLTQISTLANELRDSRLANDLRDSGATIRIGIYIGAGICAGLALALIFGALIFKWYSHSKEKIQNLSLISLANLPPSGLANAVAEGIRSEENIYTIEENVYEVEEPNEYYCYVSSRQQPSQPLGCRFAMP

[2] = molecular target: T2, monkey TIM-3 on CHOK1 stable cell line (CHOK1-cTIM-3) (monkey); experiment: FACS, CHOK1-cTIM-3 cells, 0.013 nM antibody
T2 chain: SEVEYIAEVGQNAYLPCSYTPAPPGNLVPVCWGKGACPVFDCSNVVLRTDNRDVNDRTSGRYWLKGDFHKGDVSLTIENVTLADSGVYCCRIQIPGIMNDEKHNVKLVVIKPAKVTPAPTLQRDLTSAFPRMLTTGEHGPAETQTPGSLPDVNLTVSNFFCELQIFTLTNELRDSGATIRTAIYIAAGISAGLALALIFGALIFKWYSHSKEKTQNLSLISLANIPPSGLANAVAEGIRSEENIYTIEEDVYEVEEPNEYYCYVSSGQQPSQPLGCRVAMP

[3] = molecular target: T3, human TIM-3 extracellular domain protein with hFc tag (hTIM-3-hFc) (human, UniProt Q8TDQ0 22-200); experiment: ELISA, coated human TIM-3 ECD protein, 0.0001 nM antibody
T3 construct: not shown: human IgG Fc fragment (hFc) of the pCpC vector
T3 sequence: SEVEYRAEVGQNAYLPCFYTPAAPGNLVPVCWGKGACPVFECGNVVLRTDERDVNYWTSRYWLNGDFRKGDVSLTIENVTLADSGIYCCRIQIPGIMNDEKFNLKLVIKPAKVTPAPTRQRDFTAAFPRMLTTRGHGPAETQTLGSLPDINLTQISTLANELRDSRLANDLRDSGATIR

[4] = molecular target: T3, human TIM-3 extracellular domain …; experiment: ELISA, coated human TIM-3 ECD protein, 6.6667 nM antibody

B1: 18D2H2 fully human TIM-3 antibody (human IgG4, kappa) (antibody, V domains shown)
VH: EVQLVESGGDLVQPGGSLRLSCAASGFTFSTYWMTWVRQAPGRGLEWVANIKQDGSAKYYVDSVKGRFTLSRDDAKNSLYLQMNSLRAEDTAVYYCARGSNWFDYWGQGTLVTVSS
VL: ETVMTQSPATLSVSPGERATLSCRANQNVYSNLAWYQQKPGQAPRLLIYDASTRATGFPARFSGSGSGTEFTLTISSLQSEDFAVYYCQQYNNWPLTFGGGTKVEIK
With B1 the Mean fluorescence intensity [1] was 93.1, the Mean fluorescence intensity [2] was 14.8 and the OD450 [3] was 0.08. For the same binder, the OD450 [4] was 2.61.

B2: 39E5H1 fully human TIM-3 antibody (human IgG4, kappa) (antibody, V domains shown)
VH: EVQLVESGGGLVQPGGSLRLSCAASGFTFSSYWMSWVRQAPGKGLEWVANIKRGGSERYYVDSVKGRFTISGDNAKNSVYLQMNSLRAEDTAVYYCARGSNWFDPWGQGTLVTVSS
VL: B1 VL with T10I, N26S, N28S, P40L, F58I, L96I, G100Q, K103R, V104L
B2 gave a Mean fluorescence intensity [1] of 73.1, a Mean fluorescence intensity [2] of 14.8 and an OD450 [3] of 0.08. The OD450 [4] was 2.95.

B3: 34B6D8 fully human TIM-3 antibody (human IgG4, kappa) (antibody, V domains shown)
VH: B2 VH with S31T, S35T, G44R, R53Q, S56G, E57D, R58K, G72T, V79L
VL: EIVMTQSPATLSMSPGERATLSCRASQSVYDNLAWYQQKPGQAPRLLIYGASTRATGIPARFSGSGSGTEFTLTISSLQSEDFALYYCQQYTHWPITFGQGTRLEIK
In the case of B3, the Mean fluorescence intensity [1] is reported as 76.9, the Mean fluorescence intensity [2] is reported as 12.7 and the OD450 [3] is reported as 0.09. It also gave an OD450 [4] of 2.99.
